Measured values published in publication PMC4521846.
Read-outs that look alike come from different tables or passages of the source.

Legend:
[1] = target: Plasminogen (Homo sapiens) (UniProt P00747); details: cited from earlier work
[2] = target: Translation elongation factor Tuf of Acinetobacter baumannii type strain ATCC 19606, recombinant, N-terminally hexahistidine-tagged (Acinetobacter baumannii ATCC 19606) (UniProt B7H1K5); assay: ELISA; immobilised TufAb, plasminogen (10 ug/ml) with increasing concentrations of the lysine analog tranexamic acid (up to 50 mM)
[3] = target: Elongation factor Tuf of Legionella pneumophila, recombinant, hexahistidine-tagged (Legionella pneumophila); assay: ELISA
[4] = target: Translation elongation factor Tuf of Acinetobacter baumannii type strain ATCC 19606, recombinant, N-terminally hexahistidine-tagged (Acinetobacter baumannii ATCC 19606) (UniProt B7H1K5); assay: ELISA; immobilised Tuf (5 ug/ml) incubated with increasing amounts of plasminogen; apparent dissociation constants by non-linear regression
[5] = target: Translation elongation factor Tuf of Acinetobacter baumannii type strain ATCC 19606, recombinant, N-terminally hexahistidine-tagged (Acinetobacter baumannii ATCC 19606) (UniProt B7H1K5); assay: ELISA; immobilised TufAb, plasminogen (10 ug/ml) with increasing concentrations of NaBr (up to 1 M)
[6] = target: Plasminogen (Homo sapiens) (UniProt P00747); details: cited from earlier work; remark: listed apart in the source

Enolase (from UniProt B8DTI9)
Kd [1]: 42 nM

Human glu-plasminogen (natural protein)
percent decrease of binding with 50 mM tranexamic acid, against reactions without it [2]: 50% | Kd [3]: 69 nM | Kd [4]: 57 nM | percent of binding left with 1 M NaBr, against reactions without NaBr [5]: 55%

DnaK (from UniProt B8DT62)
Kd [6]: 11 nM
